# Results as given in publication PMC3039135.
# B1: WO2/10D5_HCDR3 rFab (Fab, V domains shown)
# VH: VTLKESGPGLLKPSQTLSLTCSFSGFSIRTSKVGVSWIRQPSGKGLEWLAHIYWDDDKRYNPSLESRLTISKDTSRDMVFMKITSVDTADTATYYCVRRPITPVLVDAMDYWGQGTTLTVSS
# VL: DVLMTQTPLSLPVNLGEQASISCRSSQSIVHSNGHTYLEWYLQRPGQSPKLLIYQVSTRFSGVPDRFSGSGSGTDFTLRISRVEAEDLGVYYCFQASLVPLTFGAGTKLELK
# B2: WO2/12A11_HCDR3 rFab (Fab, V domains shown)
# VH: VTLKESGPGLLKPSQTLSLTCSFSGFSIRTSKVGVSWIRQPSGKGLEWLAHIYWDDDKRYNPSLESRLTISKDTSRDMVFMKITSVDTADTATYYCARRTTTADYFAYWGQGTTLTVSS
# VL: B1 VL
# What was measured:
# Test in all cases: SPR
# [1] = molecular target: 20.1_VH/WO2_VL rFab (mouse | human)
# [2] = molecular target: WO2 (Y58>A) mutant rFab (mouse | human)
# [3] = molecular target: WO2_VH/20.1_VL rFab (mouse | human)
# [4] = molecular target: WO2_VH/gWO2_VL rFab (mouse | human)
# [5] = molecular target: gWO2 rFab (mouse | human)
# [6] = molecular target: gWO2_VH/WO2_VL rFab (mouse | human)
# [7] = molecular target: biotinylated Aβ1–16 peptide (human)
# [8] = molecular target: biotinylated Aβ1–42 high molecular weight (HMW) soluble oligomers (human)
Molecule,Kd [1] [nM],koff [1] [s⁻¹],kon [1] [M⁻¹ s⁻¹],Kd [2] [nM],Kd [3] [nM],koff [3] [s⁻¹],kon [3] [M⁻¹ s⁻¹],Kd [4] [nM],koff [4] [s⁻¹],kon [4] [M⁻¹ s⁻¹],Kd [5] [nM],Kd [6] [nM],koff [6] [s⁻¹],kon [6] [M⁻¹ s⁻¹],Kd [7] [nM],koff [7] [s⁻¹],Kd [8] [nM],koff [8] [s⁻¹],kon [7] [M⁻¹ s⁻¹],kon [8] [M⁻¹ s⁻¹]
Aβ1–16-Im7 fusion protein (domain or fragment),2.8,0.0015,540000,4900,41,0.0614,1.5e+06,349,0.145,390000,21300,79,0.026,330000,–,–,–,–,–,–
B1,–,–,–,–,–,–,–,–,–,–,–,–,–,–,154,0.00974,89.2,0.00546,–,–
B2,–,–,–,–,–,–,–,–,–,–,–,–,–,–,262,0.0449,135,0.0261,171000,133000
